From the supplement of paper PMC9170038

Tested on: MS2 coat protein
Assay: apparent KD of MS2 coat protein; designed switch direction (-1 OFF switch, 1 ON switch): -1; higher = weaker reporter binding
In short: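 The reported apparent KD is a per-design median over clusters, from curve fits of normalised cluster fluorescence. Protein titrations used SNAP-549-labelled MS2 coat protein, doubled from 0.7 or 1.5 nM to 3 µM, in Tris-HCl pH 7.5 buffer with KCl, MgCl2, BSA, DTT, tRNA and Tween-20, with no input, 200 uM small-molecule ligand, or an oligonucleotide input. The RNA switches were transcribed on Illumina chips by stalled E. coli RNA polymerase.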

[1] = Eterna round: R95, input ligand: FMN 200 uM
[2] = Eterna round: R95, input ligand: microRNA oligo, concentration not stated
[3] = Eterna round: R95, input ligand: none
[4] = input ligand: microRNA oligo, concentration not stated

| Sequence | apparent KD of MS2 coat protein [1] [nM] | apparent KD of MS2 coat protein [2] [nM] | apparent KD of MS2 coat protein [3] [nM] | apparent KD of MS2 coat protein (input ligand: FMN 200 uM) [nM] | apparent KD of MS2 coat protein (input ligand: none) [nM] | apparent KD of MS2 coat protein [4] [nM] |
| --- | --- | --- | --- | --- | --- | --- |
| AGUACUGACGCGUCGGUGUUAGUACAAUAAGCUUGUGAAACAUGAGGAUCACCCAUGUCCUCAUAAGCUCGUCUUAU [salish99_TOv2_r3_082] (puzzle: Sensor v3, turn-off variant 2) | 15.9 | 720 | 15.4 | – | – | – |
| GUCUCGUGAGGAUAUCAUGAUUGACUUAAUUUAUUUUAGCGUGAGAAGGCACAUGAGGAUCACCCAUGUGAUUC [Ex4 - 3 - 5] (puzzle: Exclusion 4) | – | 17.1 | – | – | – | – |
| UUCACAUGGACAUAAGAUCACAUGAGGAUCACCCAUGUGAAUAACAAGCUUUUUGUUCGUCUUAUGUCCAAUAAUAA [Stov1/14-B1] (Eterna round: R97, puzzle: Sensor, turn-off variant 1) | – | – | – | 12.3 | 12.6 | – |
| AGCUAGGCAGGAUAUACAUGAGGAUCACCCAUGUAAAUUUUUCGUUUAACUUGAAUGUGUAGAAGGGCCAUAAA [Ex3 #51] (Eterna round: R97, puzzle: Exclusion 3) | – | – | – | 23.9 | 22.4 | – |
| CUGGUUCUAGGAUAUGCACUCACGAUCCUCCUUCAAUCGCAACAUGAGGAUCACCCAUGUAGAAGGAGAAAGUA [Eternabot (L1) Solution 91] (Eterna round: R97, puzzle: Exclusion 2) | – | – | – | 18.5 | 18.6 | – |
| CUAGAUCUUCGGAUCUAGGACAUGAGGAUCACCCAUGUCACGAGCAGAUCUUCAUGCAAGCUUUUUGCUCGUCUUAU [Sensor v3 - Turn-off variant 1 - 37] (puzzle: Sensor v3, turn-off variant 1) | 27.3 | 409 | 33.4 | – | – | – |
| AGCGAGGAGACAGGAUAUGAGAAUAGAUAGAACUCAGAAGGGUCACAUGAGGAUCACCCAUGUAAAGUCUUGAGGCUGCGUGGU [Prohibition 8 - Jieux - Exclusion NG 1] (Eterna round: R96, puzzle: Exclusion NG 1) | – | – | – | 239 | 88.2 | 84.3 |
| CGGUGUAGAGGAUAUACGUGGAUAUAAGAACAUGAUAAUUUACAUGAGGAUCACCCAUGUAGAAGGCUAUAGCG [JR_Ex2_Sub080] (Eterna round: R97, puzzle: Exclusion 2) | – | – | – | 74.8 | 207 | – |
| CCGAAUAUGCAGGAUAUCGUAUCGGAAACGAUACGAGAAGGGUAAACAUGAGGAUCACCCAUGUUCCUUAACGG [Fiskers Ex 6 - 18] (puzzle: Exclusion 6) | – | 17.7 | – | – | – | – |
| GGCCUGGAAGGAUAUACAUGAGGAUCACCCAUGUGAAGCCGGUGCAAAUUGACACGAUGUAGAAGGUCCAGCCG [Eternabot (L1) Solution 92] (Eterna round: R97, puzzle: Exclusion 3) | – | – | – | 467 | 172 | – |
| UGUUGUCGCGCAGGAUAUGAGGAUCACCCAUAUAGAGGAUAUGAAAAGAAGGCUCUGAGGAUCACCCAGAAGGGCGGGACAACU [pwkr exNG2 2xF5 2xFMN.23] (Eterna round: R96, puzzle: Exclusion NG 2) | – | – | – | 1390 | 222 | 141 |
| GCACGGAGUGUAGGAUAUUAGUGCGAUUAGCACUGAGAAGGACAUGAGGAUCACCCAUGUGCUACCUCAAUUAGCCUUCCGUGC [Eli exng1 - 035] (Eterna round: R96, puzzle: Exclusion NG 1) | – | – | – | 21.8 | 19.7 | 16.5 |
| CUGGACCCGGCAGGAUAUAUUGUGGGCGGGCGUGGAACGACAUGAGGAUCACCCAUGUGAUUGAGGUAGAAGGGCCGAGAGGUC [Excl-NG2-LRO20] (Eterna round: R96, puzzle: Exclusion NG 2) | – | – | – | 38.5 | 47.7 | 30.6 |
| UUUUAACAUGAGGAUCACCCAUGUGAGGAUAUCGAAAUUUAUAUUAAUAUUAUUAAAUCGAGAAGGCACAUUUU [JMF 36] (puzzle: Exclusion 1) | – | 104 | – | – | – | – |
| GCCUCACUUGAGGAUCACCCAAGUCAGGAUAUUCACUGAACUACGUAGCAGUUCGGCCGAAGAAGGGAUUCGGG [Azaraqu] (Eterna round: R97, puzzle: Exclusion 1) | – | – | – | 44.5 | 95.1 | – |
| AGACGAUCGUAGGAUAUCGGAAGGUCACUGGACUGAGAAGGACGAACAUGAGGAUCACCCAUGUGAUCUCUGGU [Eternabot (L2) Solution 43] (Eterna round: R97, puzzle: Exclusion 6) | – | – | – | 779 | 734 | – |

| Sequence | apparent KD of MS2 coat protein [1] [nM] | apparent KD of MS2 coat protein [2] [nM] | apparent KD of MS2 coat protein [3] [nM] | apparent KD of MS2 coat protein (input ligand: FMN 200 uM) [nM] | apparent KD of MS2 coat protein (input ligand: none) [nM] | apparent KD of MS2 coat protein [4] [nM] |
| --- | --- | --- | --- | --- | --- | --- |
| CGUGUGUCAGGAUAUACGUUGGGCCAGCAUGGCUAAAGACAGUAGAAGGGACAUGAGGAUCACCCAUGUGGAGU [Eternabot (L2) Solution 4] (Eterna round: R97, puzzle: Exclusion 4) | – | – | – | 571 | 78.9 | – |
| AAGCCUGGCUCAGGAUAUACAUGAGGAUCACCCAUGUUCUCAGUGAGGCAAGAUAACAACACGACGUAGAAGGGAGCUAGGCCG [Eternabot solution 5] (Eterna round: R96, puzzle: Exclusion NG 2) | – | – | – | 81.7 | 40 | 17.9 |
| GCUGGUGUGCAGGAUAUUUAAUUGCAAAUAAAUAAAGAAGGGCAUACAUGAGGAUCACCCAUGUCGUCGUUGCG [Eternabot (L1) Solution 98] (Eterna round: R97, puzzle: Exclusion 6) | – | – | – | 39.2 | 32.7 | – |
| UAGAUACAUGAGGAUCACCCAUGUGAGGAUAUGAGAAUUAUAUUAAAUGAAUGAAUUUUCAGAAGGCACAAAGG [JR_Ex1_Sub051] (Eterna round: R97, puzzle: Exclusion 1) | – | – | – | 482 | 221 | – |
| CUCGUGUUAGGAUAUCUAUCGCGGAUGACAGAGAGGACGUUGGAGAAGGAACAUGAGGAUCACCCAUGUUCUGG [Eternabot (L2) Solution 86] (Eterna round: R97, puzzle: Exclusion 4) | – | – | – | 18.8 | 14.5 | – |
| GGCCUCGCGGUCAGGAUAUAUUGCUGUAAUCAGUGGUAGAAGGGACAUGAGGAUCACCCAUGUACCUAGGACAU [BmEX4 C.20] (Eterna round: R97, puzzle: Brourd's mod of Exclusion 4) | – | – | – | 33.4 | 18.9 | – |
| UAUUAGCAAGCAAAUGGGUACAUGAGGAUCACCCAUGUGCUCGUCUUAUAAGGUACUGUGACGAACGUCACGGUACC [mod--Eli5] (Eterna round: R97, puzzle: Sensor, turn-off variant 1) | – | – | – | 27.8 | 26.8 | – |
| AGAUGGAUUGCUAGAAAACUAGUAAUUCAUCAAUCAAGCACAUGAGGAUCACCCAUGUCUUAGAGUACGUGAGUACA [JL gull wing 9] (Eterna round: R96, puzzle: Sensor v2, turn-off variant 2) | – | – | – | 12.8 | 16 | 12.5 |
| AGCCAUGAAGGAUAUACAUGAGGAUCACCCAUGUUGCGGACAGGUUUGAUCGGCGUAGGUAGAAGGUCAAGUAG [Eternabot (L2) Solution 62] (Eterna round: R97, puzzle: Exclusion 3) | – | – | – | 28.2 | 22.1 | – |
| GUCGCGUGGGUGUGGGAGGACAUGAGGAUCACCCAUGUGACUACCAAGCUUUUUGCUCCUCUUAGGUCCAUGGGAAG [Random] (Eterna round: R97, puzzle: Sensor, turn-off variant 1) | – | – | – | 67 | 109 | – |
| GCGCACCUACCAAAAGGUAGGUCAACAUGAGGAUCACCCAUGUAGGAUAUCGAUUGCUUUGCAGUCGAGAAGGACAUGAUGCGC [JL ENG3 3.80 Mod 13] (Eterna round: R96, puzzle: Exclusion NG 3) | – | – | – | 111 | 36.7 | 36.3 |
| AGAAGUAGAAACCGAUCCUACAUGAGGAUCACCCAUGUAGCAAGACGUGCACGCGAAGCUCGUCAGACUACCAGAAU [salish99_TOv1_r3_006] (puzzle: Sensor v3, turn-off variant 1) | 340 | 193 | 347 | – | – | – |
| AAUAACAAGCUGAUCCUAAACAUGAGGAUCACCCAUGUGUUCGUCUUGUAAAGUACUAUCACGAAAGUGAUAGUACA (Eterna round: R97, puzzle: Sensor, turn-off variant 1) | – | – | – | 75.2 | 80 | – |
| AGCUGACAAGGAUAUACAUGAGGAUCACCCAUGUUGGUCAAGCGACGAUAGUCGCAAUGUAGAAGGUGUCAGCU [E3/8-C1] (Eterna round: R97, puzzle: Exclusion 3) | – | – | – | 1750 | 341 | – |
| AACGAGGCAGGAUAUACAUGAGGAUCACCCAUGUGCUUGCAUGGCGUGGGAAGUCAUCGUAGAAGGGCUAUGCC [EX3 #64] (Eterna round: R97, puzzle: Exclusion 3) | – | – | – | 210 | 283 | – |
